Measured values as given in paper PMC3005623 (Journal of molecular biology, 2010).
Like-named read-outs stand apart in the source and are kept apart here.

Columns and labels:
[1] = target: the molecule itself; assay: electron microscopy of lipid monolayers
[2] = target: the molecule itself; assay: electron microscopy of lipid monolayers; remark: listed apart in the source

| Protein | binding result [1] | binding result [2] |
| --- | --- | --- |
| Cdc12–(His)6-Cdc3–Cdc10–Cdc11(Δ306–415) complex (complex, S. cerevisiae) chain 1: MSAATATAAPVPPPVGISNLPNQRYKIVNEEGGTFTVMLCGESGLGKTTFINTLFQTVLKRADGQQHRQEPIRKTVEIDITRALLEEKHFELRVNVIDTPGFGDNVNNNKAWQPLVDFIDDQHDSYMRQEQQPYRTKKFDLRVHAVLYFIRPTGHGLKPIDIETMKRLSTRANLIPVIAKADTLTAQELQQFKSRIRQVIEAQEIRIFTPPLDADSKEDAKSGSNPDSAAVEHARQLIEAMPFAIVGSEKKFDNGQGTQVVARKYPWGLVEIENDSHCDFRKLRALLLRTYLLDLISTTQEMHYETYRRLRLEGHENTGEGNEDFTLPAIAPARKLSHNPRYKEEENALKKYFTDQVKAEEQRFRQWEQNIVNERIRLNGDLEEIQGKVKKLEEQVKSLQVKKSHLK chain 2: MSLKEEQVSIKQDPEQEERQHDQFNDVQIKQESQDHDGVDSQYTNGTQNDDSERFEAAESDVKVEPGLGMGITSSQSEKGQVLPDQPEIKFIRRQINGYVGFANLPKQWHRRSIKNGFSFNLLCVGPDGIGKTTLMKTLFNNDDIEANLVKDYEEELANDQEEEEGQGEGHENQSQEQRHKVKIKSYESVIEENGVKLNLNVIDTEGFGDFLNNDQKSWDPIIKEIDSRFDQYLDAENKINRHSINDKRIHACLYFIEPTGHYLKPLDLKFMQSVYEKCNLIPVIAKSDILTDEEILSFKKTIMNQLIQSNIELFKPPIYSNDDAENSHLSERLFSSLPYAVIGSNDIVENYSGNQVRGRSYPWGVIEVDNDNHSDFNLLKNLLIKQFMEELKERTSKILYENYRSSKLAKLGIKQDNSVFKEFDPISKQQEEKTLHEAKLAKLEIEMKTVFQQKVSEKEKKLQKSETELFARHKEMKEKLTKQLKALEDKKKQLELSINSASPNVNHSPVPTKKKGFLR chain 3: MDPLSSVQPASYVGFDTITNQIEHRLLKKGFQFNIMVVGQSGLGKSTLINTLFASHLIDSATGDDISALPVTKTTEMKISTHTLVEDRVRLNINVIDTPGFGDFIDNSKAWEPIVKYIKEQHSQYLRKELTAQRERFITDTRVHAILYFLQPNGKELSRLDVEALKRLTEIANVIPVIGKSDTLTLDERTEFRELIQNEFEKYNFKIYPYDSEELTDEELELNRSVRSIIPFAVVGSENEIEINGETFRGRKTRWSAINVEDINQCDFVYLREFLIRTHLQDLIETTSYIHYEGFRARQLIALKENANSRSSAHMSSNAIQR chain 4: MSGIIDASSALRKRKHLKRGITFTVMIVGQSGSGRSTFINTLCGQQVVDTSTTILLPTDTSTEIDLQLREETVELEDDEGVKIQLNIIDTPGFGDSLDNSPSFEIISDYIRHQYDEILLEESRVRRNPRFKDGRVHCCLYLINPTGHGLKEIDVEFIRQLGSLVNIIPVISKSDSLTRDELKLNKKLIMEDIDRWNLPIYNFPFDEDEISDEDYETNMYLRTLLPFAIIGSNEVYEMGGDVGTIRGRKYPWGILDVEDSSISDFVILRNALLISHLHDLKNYTHEILYERYRTEALSGESVAAES | binds | – |
| (His)6–Cdc12-Cdc10-Cdc3 complex (complex, S. cerevisiae) chain 1: MSAATATAAPVPPPVGISNLPNQRYKIVNEEGGTFTVMLCGESGLGKTTFINTLFQTVLKRADGQQHRQEPIRKTVEIDITRALLEEKHFELRVNVIDTPGFGDNVNNNKAWQPLVDFIDDQHDSYMRQEQQPYRTKKFDLRVHAVLYFIRPTGHGLKPIDIETMKRLSTRANLIPVIAKADTLTAQELQQFKSRIRQVIEAQEIRIFTPPLDADSKEDAKSGSNPDSAAVEHARQLIEAMPFAIVGSEKKFDNGQGTQVVARKYPWGLVEIENDSHCDFRKLRALLLRTYLLDLISTTQEMHYETYRRLRLEGHENTGEGNEDFTLPAIAPARKLSHNPRYKEEENALKKYFTDQVKAEEQRFRQWEQNIVNERIRLNGDLEEIQGKVKKLEEQVKSLQVKKSHLK chain 2: MDPLSSVQPASYVGFDTITNQIEHRLLKKGFQFNIMVVGQSGLGKSTLINTLFASHLIDSATGDDISALPVTKTTEMKISTHTLVEDRVRLNINVIDTPGFGDFIDNSKAWEPIVKYIKEQHSQYLRKELTAQRERFITDTRVHAILYFLQPNGKELSRLDVEALKRLTEIANVIPVIGKSDTLTLDERTEFRELIQNEFEKYNFKIYPYDSEELTDEELELNRSVRSIIPFAVVGSENEIEINGETFRGRKTRWSAINVEDINQCDFVYLREFLIRTHLQDLIETTSYIHYEGFRARQLIALKENANSRSSAHMSSNAIQR chain 3: MSLKEEQVSIKQDPEQEERQHDQFNDVQIKQESQDHDGVDSQYTNGTQNDDSERFEAAESDVKVEPGLGMGITSSQSEKGQVLPDQPEIKFIRRQINGYVGFANLPKQWHRRSIKNGFSFNLLCVGPDGIGKTTLMKTLFNNDDIEANLVKDYEEELANDQEEEEGQGEGHENQSQEQRHKVKIKSYESVIEENGVKLNLNVIDTEGFGDFLNNDQKSWDPIIKEIDSRFDQYLDAENKINRHSINDKRIHACLYFIEPTGHYLKPLDLKFMQSVYEKCNLIPVIAKSDILTDEEILSFKKTIMNQLIQSNIELFKPPIYSNDDAENSHLSERLFSSLPYAVIGSNDIVENYSGNQVRGRSYPWGVIEVDNDNHSDFNLLKNLLIKQFMEELKERTSKILYENYRSSKLAKLGIKQDNSVFKEFDPISKQQEEKTLHEAKLAKLEIEMKTVFQQKVSEKEKKLQKSETELFARHKEMKEKLTKQLKALEDKKKQLELSINSASPNVNHSPVPTKKKGFLR | – | binds |
